D-value data for four molecules are collected here from patent publication EP1706427B1 (Crucell Holland B.V., dated 2011).

For test [1], the target named is T1, murine CD1a (mouse).
T1 construct: whole, on cells; no mouse CD1a entry is known to me; also called mouse thymocytes
The experiment in a line: flow cytometry on mouse thymocytes, Kolmogorov-Smirnov D-value. (In general: In flow cytometry, cells or beads pass a laser one at a time.)

The target in test [2] is T2, murine CD1d (mouse, UniProt P11609 22-336).
T2 construct: whole, on cells; also called mouse thymocytes
T2 sequence (looked up): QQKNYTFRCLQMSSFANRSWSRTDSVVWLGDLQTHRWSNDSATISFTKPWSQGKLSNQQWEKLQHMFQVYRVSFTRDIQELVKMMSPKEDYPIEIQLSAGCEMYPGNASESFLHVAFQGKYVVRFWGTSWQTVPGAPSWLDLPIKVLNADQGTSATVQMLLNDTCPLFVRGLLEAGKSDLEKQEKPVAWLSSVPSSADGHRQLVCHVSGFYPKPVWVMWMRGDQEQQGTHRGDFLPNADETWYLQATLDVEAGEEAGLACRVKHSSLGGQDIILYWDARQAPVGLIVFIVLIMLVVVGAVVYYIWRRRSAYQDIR
Described as above.

Where a chain is given by its changes, count along the chain named.

B1: human anti-human CD1a monoclonal antibody CR2113 (antibody, human IgG1, kappa, V domains shown)
VH: QVQLQESGAGLLKPSETLSLTCAVYGGSFSGYYWSWIRQPPGKGLEWIGYIYYSGSTNYNPSLKSRVTISVDTSKNQFSLKLSSVTAADTAVYYCAKAPYMMYFDSWGQGTLVTVSS
VL: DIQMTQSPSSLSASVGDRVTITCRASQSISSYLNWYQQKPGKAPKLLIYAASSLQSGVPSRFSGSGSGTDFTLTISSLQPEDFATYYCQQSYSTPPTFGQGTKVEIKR
notes: Human IgG1 kappa made in 293T cells, purified over protein A and size exclusion; Used unlabelled and biotinylated; also called 02-113
As for B1, the D-value in test [1] and in test [2] was 0 in each case.

B2: human anti-human CD1a monoclonal antibody CR2114 (antibody, human IgG1, kappa, V domains shown)
VH: EVQLVESGGGLVQPGGSLRLSCAASGFTFSSYSMNWVRQAPGKGLEWVSYISSSSSTIYYADSVKGRFTISRDNAKNSLYLQMNSLRDEDTAVYYCAKETWWQSFDYWGQGTLVTVSS
VL: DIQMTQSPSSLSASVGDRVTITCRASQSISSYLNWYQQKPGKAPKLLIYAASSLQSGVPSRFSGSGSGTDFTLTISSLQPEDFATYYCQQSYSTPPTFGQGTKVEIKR
notes: Human IgG1 kappa made in 293T cells; Used unlabelled and biotinylated; also called 02-114
As to B2, the D-value in test [1] and in test [2] was 0 each time.

B3: human anti-human CD1a monoclonal antibody CR2117 (antibody, human IgG1, kappa, V domains shown)
VH: EVQLVESGGGLVHPGGSLRLSCAGSGFTFSSYAMHWVRQAPGKGLEWVSAIGTGGGTYYADSVKGRFTISRDNAKNSLYLQMNSLRAEDTAVYYCARSTPWFSFDYWGQGTLVTVSS
VL: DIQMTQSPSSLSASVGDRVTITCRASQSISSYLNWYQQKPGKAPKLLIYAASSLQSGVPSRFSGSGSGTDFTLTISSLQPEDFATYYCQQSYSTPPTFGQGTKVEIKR
notes: Human IgG1 kappa made in 293T cells; Used unlabelled and biotinylated; also called 02-117
As to B3, the D-value in test [1] and in test [2] was 0 each time.

B4: human anti-human CD1a monoclonal antibody CR2118 (antibody, human IgG1, kappa, V domains shown)
VH: B3 VH with G52S, T99A, P100W, F102L, Y106S
VL: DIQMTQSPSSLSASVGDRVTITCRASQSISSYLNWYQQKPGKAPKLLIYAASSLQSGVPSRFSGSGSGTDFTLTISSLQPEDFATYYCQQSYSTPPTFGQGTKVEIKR
notes: Human IgG1 kappa made in 293T cells; Used unlabelled and biotinylated; also called 02-118
Consider B4, for which the D-value in test [1] and in test [2] was 0 each time.
